Target: opiate receptors of rat brain homogenate ([3H]-Naloxone binding sites, non-selective binding assay) (rat)
Experiment: displacement of 1.0 nM [3H]-Naloxone from rat brain homogenate, filtration; compound at 10 nM

% INHIBITION AT 10 nM: 1.28%
Substance: CCI-H (20% HSA•MPA-AEA3-Dyn A 2-17-NH2) (from UniProt P02768 25-609)
